Target: Gβγ (bovine) (UniProt P62871)

Work on “His-tagged phosducin (from UniProt P19632 1-245) (natural protein)” yielded a decrease of GIRK1* current (two-electrode voltage clamp, Xenopus oocytes coexpressing GIRK1* and Gβγ) 40-50 min after injection of purified His-phosducin to ~23 µM of 74%.

From article PMC6346094
